B1: Bv8: recombinant Bv8 (Prokineticin-2) protein, PeproTech (protein)
chain: AVITGACDKDSQCGGGMCCAVSIWVKSIRICTPMGKLGDSCHPLTRKVPFFGRRMHHTCPCLPGLACLRTSFNRFICLAQK

Experiments:
Bv8 protein levels = assay: Serum Bv8 in A673 tumor-bearing mice treated with cisplatin; assay type: in vivo, mouse; conditions: cisplatin 5 mg/kg, alone or in combination with anti-VEGF
Method: FIG. 6. […] Anti-Bv8 treatment is mostly effective when treatment is initiated early in tumor development. […] Mice were then treated with control, anti-Bv8, anti-VEGF or combination (anti-VEGF plus anti-Bv8) of antibodies. Tumor volume was measured as described. * indicates significant difference (p<0.05) in tumor volume between combination therapy vs. anti-VEGF monotherapy. c&d. […] Nude mice (c) and C57B1/6 (d) mice were implanted with EL4 cells and underwent treatment with control, anti-Bv8, anti-VEGF or the combination. Tumor volume and terminal tumor weight were measured as described. * indicates significant difference […] in tumor volume in control vs. each monotherapy or the combination therapy. Differences in tumor volume are also significant when comparing combination vs. each monotherapy. e. Cisplatin and anti-VEGF treatment increase Bv8 concentration in the serum. Beige nude mice were implanted with A673 cells and were treated with PBS, cisplatin (5 mg/kg) plus control antibody, cisplatin plus anti-Bv8, or cisplatin plus anti-VEGF or the combination cisplatin, anti-Bv8 and anti-VEGF. Serum Bv8 protein concentrations were measured by ELISA. f. Chemotherapy plus anti-VEGF and anti-Bv8 can effectively suppress tumor growth in established A673 tumors. […]

PKR1/EG-VEGFR1 = molecular target: T1, PKR1/EG-VEGFR1 (Homo sapiens, UniProt Q8TCW9); assay: Bv8 bioactivity assay, GeneBLAzer NFAT-CHO cells transfected with PKR1/EG-VEGFR1; assay type: cell-based; conditions: Bv8 0.2-200 ng/ml; VEGF-A up to 200 ng/ml
T1 construct: host or cells: GeneBLAzer NFAT-CHO cells
Method: The GeneBLAzer® NFAT-CHO cells were obtained from Invitrogen Corporation (Carlsbad, Calif.). Cells were stably transfected with PKR1/EG-VEGFR1 and grown in DMEM (high glucose) containing 10% dialysed serum, 0.1 mM NEAA, 2 mM GlutaMax™ (Gibco), 1 mM sodium pyruvate, 10 μg/ml Zeocin, 500 μg/ml hygromycin. Cells were plated into 96-well Viewplate (Packard) with 2.5×10^4 in […] in 1% DMEM overnight at 5% CO2, 37° C. On the following day, cells were treated with various column fractions that were concentrated with Microcon Centrifugal Filter Devices (Ultracel YM-3) from Millipore. 0.2-0.02 ng/ml hBv8 (Peprotech Inc.) prepared in 1% DMEM was used as a positive control. One hour later, media was removed and replaced with […] Hank's solution containing 0.1% BSA and 6× loading buffer containing 1 mM CCF4 (Invitrogen Corporation). Plates were incubated for 1.5 hr at room temperature in the dark and read on Wallac plate reader at excitation wavelength of 410 nm and emission wavelength of 450/520 nm. Negative controls were cells with no ligand added and control media alone. CHO cells were stimulated with recombinant human Bv8 or pooled fractions for 1 hr before adding the β-lactamase substrate CCF4. To assess the specificity of the column fractions, anti-Bv8 antibodies 2B9 and 3F1 were added at […].

p44/42 MAPK = assay: MAPK phosphorylation in TAECs (Western blot); assay type: cell-based, mouse
Method: TIB42-TAEC cells were starved for 6 hr in basal media supplemented with 0.5% BSA. Cells were then stimulated with human recombinant Bv8 (200 ng/ml; PeproTech), Complete Media (CM), VEGF (100 ng/ml; PeproTech) or BSA (0.5%). Cell extracts were collected at the indicated time-points. Western blot analysis of the extracts from TIB42-TAEC cells was performed using PhosphoPlus p44/42 MAPK™ antibody kit (Cell signaling).

human neutrophils = assay: Chemotaxis of peripheral blood neutrophils; assay type: cell-based
Method: 10^6 cells were washed with HBSS containing 0.2% BSA before putting into transwell insert with 5 μm pore size (Corning Incorporated, Lowell, Mass.). In the lower chamber, media alone or media with various cytokines at various concentrations (maximum at 200 ng/ml) was added. After 3 hr at 37° C., cells in the lower chamber were transferred, mixed with 9 ml ZPAK solution and counted on Z2 Coulter Particle Count and Size Analyzer (Beckman Coulter, Fullerton, Calif.).

TIB42-TAEC cells = assay: In vitro tube formation of tumor-associated endothelial cells; assay type: cell-based, mouse; conditions: Bv8 200 ng/ml, VEGF-A 100 ng/ml, 36 hours
Method: Tumor associated endothelial cells (TAECs) were isolated using a magnetic beads sorting system (Miltenyi Biotech), essentially as previously described (Hida et al., Cancer Res 64:8249-8255 (2004)). Briefly, TIB42 mouse lymphoma cells were injected into the dorsal lateral flanks of female beige nude mice. When tumors reached a diameter of […], they were excised, minced and then digested with collagenase II (Worthington Biochemical Corporation). Cell suspensions were than filtered using 100 μm to 40 μm meshes. CD31^+ cells were finally sorted using a FITC-CD31 antibody (BD Biosciences) according to the manufacturer's instructions. CD31+ cells were seeded in gelatin coated plates in the presence of EGM-2MV media (Cambrex). After 24 hs in culture CD31+ non-adherent cells were removed by washing several times with PBS.
For in vitro tube formation, TIB42-TAEC cells (passages 6-8) were starved for 5 hs in serum free medium. After this, cells were collected and resuspended in serum free medium supplemented with 5% BSA and treated with VEGF-A (100 ng/ml), Bv8 (200 ng/ml) or no addition (control). For specificity tests, Bv8, was incubated in the presence of anti-Bv8 Mabs (10 μg/ml). 5×10^5 cells were seeded in each well of a 24 well pre-coated with Matrigel™ (BD Biosciences) and tube formation was evaluated after 36 hours.

CD11b+Gr1+ myeloid cells = assay: Trans-well migration of BM CD11b+Gr1+ cells; assay type: cell-based, mouse; conditions: comparable to SDF-1
Method: BMMNCs were isolated from naïve Beige nude mice and the CD11b+Gr1+ population was sorted using CD11b microbeads (Miltenyi Biotech, CA) according to protocols provided by the manufacturer. An aliquot of the sorted cells were stained with anti-CD11bAPC and antiGr1-PE to ensure the purity (100%) of CD11b+Gr1+ cells. For migration assay, 2.0×10^5 cells were plated on the top chamber of transwells (Corning Incorporated, NY). The bottom chambers contained 600 μL of media (IMDM (Gibco BRL, CA) supplemented with BIT (Stem Cell Technologies, BC, Canada) containing human Bv8, control antibody, and murine recombinant VEGF in separate wells. Cells were incubated at 37° C. and 5% CO2 for 9 hrs and migration of CD11+b+Gr1+ cells was evaluated by counting the cells in the bottom chamber.

[1] = system: Lin- and CD11b+Gr1+ BM cells; assay: Bv8 treatment of Lin- and CD11b+Gr1+ BM cells; assay type: cell-based, mouse
Method: Supplemental FIG. 3. a. Bv8 induces trans-well migration of CD11b+Gr1+ myeloid cells. Controls were PBS or media alone. b&c. Expression of Bv8 receptors in BMMNCs. Beige nude mice were implanted with A673, HM7, HPAC or Calu-06 cells as described. After 10 days, CD11b+Gr1+ myeloid cells were isolated from the BM and Taqman™ analysis was performed to investigate EG-VEGFRs expression in myeloid and non-myeloid (CD11b−Gr1−) subsets of tumor versus Matrigel™-implanted mice. […] Bv8 alters the fate of the progenitor population to myeloid cells (CD11b+Gr1+) and also inhibitors cell death in the Lin-population. The Lin-fraction, isolated from the BMMNCs of beige nude mice, was incubated with Bv8 for 5 days and the frequency of CD11b+Gr1+ cells was evaluated in a FACSCalibur machine. In addition, 7AAD staining was employed to measure the number of dead cells in each treatment. e. Bv8 induces clonogenic capacity of progenitor cells. Lin-population were treated with Bv8 or PBS for 5 days and were plated on methylcellulose (7500 cells per well) and were incubated in 5% CO2 and 37° C. for 15 days. […] L Bv8 is a survival factor for myloid populations. The CD11b+Gr1+ cells, isolated from the BMMNCs of beige/nude mice, were cultured in media and were treated with Bv8 (300 ng/ml) for 5 days. Cell death was measured in a FACSCalibur machine using 7AAD staining. g&h. […] Mice were implanted with A673 (e) or HM7 (f) tumors and were treated with anti-Bv8 or control antibodies as described. Treatment was stopped at day 7 after implantation, as indicated by arrow in the figure. i&j. Discontinued treatment of anti-Bv8 results in rebound of CD11b+Gr1+ cells to A673 (i) and HM7 (j) tumors.
However, the precise contribution of R1 vs. R2 in mediating Bv8 signaling in BMMNCs remains to be determined. […] To further characterize the effects of Bv8 on the cells of the hematopoietic system, both lineage depleted (Lin— that is devoid of CD11b+Gr1+ cells) and CD11b+Gr1+ cells were isolated from the BM of naïve mice and were treated with recombinant Bv8.

[2] = system: A673, HM7, HPAC and Calu6 cells; assay: Tumor cell proliferation assay (BrdU incorporation); assay type: cell-based, human; conditions: range of concentrations
Method: A673, HM7, HPAC and Calu6 cells were trypsinized and washed in media containing 0.5% FBS before seeding into 96-well black Viewplate (Packard Bioscience Company, Meriden, Conn.). Cells were incubated with various amounts of Bv8 (PeproTech Inc., Rocky Hill, N.J.) for 3 days. 10% FBS-containing media served as a positive control. Cell proliferation was assessed by BrdU incorporation using the Cell Proliferation ELISA kit (Roche).

T1 sequence (Q8TCW9 whole entry): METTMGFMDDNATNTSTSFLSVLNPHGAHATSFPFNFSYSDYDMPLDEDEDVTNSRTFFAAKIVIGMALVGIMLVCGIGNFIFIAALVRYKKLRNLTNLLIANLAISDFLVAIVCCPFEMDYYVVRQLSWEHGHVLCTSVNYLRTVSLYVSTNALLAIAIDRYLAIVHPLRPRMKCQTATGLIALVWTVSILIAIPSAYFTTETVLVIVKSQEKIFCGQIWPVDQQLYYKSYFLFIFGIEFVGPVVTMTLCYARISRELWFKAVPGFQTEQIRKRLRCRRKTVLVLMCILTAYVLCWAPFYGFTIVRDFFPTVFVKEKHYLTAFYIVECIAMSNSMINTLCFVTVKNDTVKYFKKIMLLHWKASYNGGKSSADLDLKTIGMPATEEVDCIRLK

Row | Molecule | Bv8 level in the serum (Bv8 protein levels) | stimulation of PKR1/EG-VEGFR1 transfected CHO cells (PKR1/EG-VEGFR1) | MAP kinase phosphorylation in TAECs (p44/42 MAPK) | effect on neutrophil migration (human neutrophils; all concentrations tested, data not shown) | tube formation in Matrigel (TIB42-TAEC cells) | migration of BM CD11b+Gr1+ cells (CD11b+Gr1+ myeloid cells) | concentration of maximal stimulation (human neutrophils) | maximal stimulation of chemotaxis above control (human neutrophils; 3 hr) | dead cells among CD11b+Gr1+ cells ([1]; Bv8 300 ng/ml, 5 days) | number of dead cells in Lin- population ([1]; Bv8 for 5 days, 7AAD) | CD11b+Gr1+ cells arising in Lin- population ([1]; Bv8 for 5 days, vs controls) | MAPK pathway in CD11b+Gr1+ cells ([1]; data not shown) | CFU colonies from Lin- cells ([1]; p<0.05 vs control-treated cells) | effect on proliferation of tumor cell lines [2] | effect on proliferation of tumor cell lines ([2]; listed as recombinant Bv8)
1 | N.N.[Cl][Pt][Cl] [cisplatin] | significantly (p<0.05) increased |  |  |  |  |  |  |  |  |  |  |  |  |  | 
2 | VEGF-A: recombinant vascular endothelial growth factor-A |  | did not elicit any response | strong induction of MAP kinase phosphorylation | did not show any effect | formed tubes |  |  |  |  |  |  |  |  |  | 
3 | B1 |  | dose-dependent stimulation | strong induction of MAP kinase phosphorylation |  | promoted tube formation | promoted migration | ~2 pM | ~3 fold | fewer dead cells | significantly lower than controls | higher expression of CD11b+Gr1+ cells | activation of MAPK pathway in a time dependent manner | greater number of colonies | neither the anti-Bv8 Mabs nor Bv8 itself had any detectable effects | failed to stimulate the proliferation
